Laboratory results: paper PMC11146434, “Mitigation of TDP-43 toxic phenotype by an RGNEF fragment in amyotrophic lateral sclerosis models” (Brain, 2023)
Values belong to the molecule of their own block, whether it stands above or below them.

B2: His-MBP-RGNEF^1–275 (domain or fragment, human, UniProt Q8N1W1 1-275, looked up)
chain: MELSCSEAPLYGQMMIYAKFDKNVYLPEDAEFYFTYDGSHQRHVMIAERIEDNVLQSSVPGHGLQETVTVSVCLCSEGYSPVTMGSGSVTYVDNMACRLARLLVTQANRLTACSHQTLLTPFALTAGALPALDEELVLALTHLELPLEWTVLGSSSLEVSSHRESLLHLAMRWGLAKLSQFFLCLPGGVQALALPNEEGATPLDLALREGHSKLVEDVTNFQGRWSPSFSRVQLSEEASLHYIHSSETLTLTLNHTAEHLLEADIKLFRKYFWDR
notes: Detailed purification protocol is in the Supplementary Methods; also called His-NF242; NF242 (in the SPR experiments); source: E. coli, purified (Ni-IMAC); not shown: MBP, N-terminal, kept

Key:
His-MBP-RGNEF^1–275 = target: B2; test: SPR; His-MBP-RGNEF^1–275 amine-coupled on a carboxymethyl dextran chip; TDP-43 fragments as analytes; 1× PBS, 0.1% Tween-20; 22°C
His-TDP-43 1-269 [1] = target: T1, His-TDP-43 1-269 (human, UniProt Q13148 1-269); test: SPR; 100 nM TDP-43 1-269, no NF242; 10 mM Tris pH 8.0, 150 mM NaCl, 2 mM MgCl2, 0.05% Tween-20, 1 uM BSA; 30 min pre-incubation at room temperature; SPR at 22 C (stated for the protein-protein SPR); 80 RIU RNA immobilized; conditions: protein: recombinant; tags: N-terminal 6xHis (pQE30); label: 3' biotin
Target sequence in this assay (Q13148 1-269): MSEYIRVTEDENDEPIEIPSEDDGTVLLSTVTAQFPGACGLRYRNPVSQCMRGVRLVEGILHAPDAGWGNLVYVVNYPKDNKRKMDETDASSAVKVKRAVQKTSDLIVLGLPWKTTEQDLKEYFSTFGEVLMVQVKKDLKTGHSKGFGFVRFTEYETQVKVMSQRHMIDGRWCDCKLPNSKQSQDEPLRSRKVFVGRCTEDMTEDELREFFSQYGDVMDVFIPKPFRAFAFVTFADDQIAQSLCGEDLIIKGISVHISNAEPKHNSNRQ

His-GST-TDP-43^wt = target: T2, His-GST-TDP-43^wt (human, UniProt Q13148 1-414); test: SPR; His-MBP-RGNEF^1–275 amine-coupled on a carboxymethyl dextran chip (2000 to 8000 µRIU); His-GST-TDP-43^wt as analyte; 20 mM HEPES pH 7.5, 50 mM KCl, 0.5 mM MgCl2, 50 mM NaCl, 0.05% Tween-20; 22°C; conditions: both partners purified
T2 construct: also called full-length wild-type TDP-43 with an N-terminal GST fusion; source: E. coli, purified (Ni-IMAC); not shown: GST, N-terminal, kept
T2 sequence (Q13148 whole entry, the tested form may be a part): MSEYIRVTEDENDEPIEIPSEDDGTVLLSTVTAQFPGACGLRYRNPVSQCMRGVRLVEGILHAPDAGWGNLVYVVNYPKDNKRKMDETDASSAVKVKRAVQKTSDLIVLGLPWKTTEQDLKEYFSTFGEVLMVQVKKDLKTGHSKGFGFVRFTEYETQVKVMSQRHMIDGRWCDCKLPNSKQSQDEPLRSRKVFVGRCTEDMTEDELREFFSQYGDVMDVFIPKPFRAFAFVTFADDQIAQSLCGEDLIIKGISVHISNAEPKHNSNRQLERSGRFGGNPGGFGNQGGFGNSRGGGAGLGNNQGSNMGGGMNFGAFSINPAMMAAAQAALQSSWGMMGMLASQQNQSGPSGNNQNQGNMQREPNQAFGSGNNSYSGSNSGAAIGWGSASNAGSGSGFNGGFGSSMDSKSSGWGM

His-TDP-43 1-269 [2] = target: T1, His-TDP-43 1-269; test: SPR; competition: 3′-biotinylated RNA oligo on a neutravidin chip; 100 nM His-TDP-43^1–269 pre-incubated 30 min at room temperature with 1 or 10 μM His-MBP-RGNEF^1–275, then injected; 10 mM Tris pH 8.0, 150 mM NaCl, 2 mM MgCl2, 0.05% Tween-20, 1 μM BSA

Kd (His-MBP-RGNEF^1–275): 4110 nM
Molecule: His-TDP-43^1–269 (from UniProt Q13148 1-269) (domain or fragment)

binding result (His-MBP-RGNEF^1–275; both partners purified): binds
B1: His-RRM-1 (domain or fragment, human, UniProt Q13148 101-191, looked up)
chain: QKTSDLIVLGLPWKTTEQDLKEYFSTFGEVLMVQVKKDLKTGHSKGFGFVRFTEYETQVKVMSQRHMIDGRWCDCKLPNSKQSQDEPLRSR
notes: source: E. coli, purified (Ni-IMAC)

Molecule: GUGUGUGAAUGAAUAAA (ssRNA) [3'-biotinylated RNA oligo]
binding result (His-TDP-43 1-269 [1]): binds

Molecule: B2
Kd (His-GST-TDP-43^wt): 1780 nM | percent reduction of the signal of TDP-43 on the RNA chip at 1 μM NF242 (His-TDP-43 1-269 [2]): 10% | percent reduction of the signal of TDP-43 on the RNA chip at 10 μM NF242 (His-TDP-43 1-269 [2]): 50%
